The record followed here is publication PMC6775779.

A word on the stoichiometry N: it is a count of units in the complex or per binding partner.

This test has as its target HIV-1 integrase Q214C/Q221C double mutant, in virions (HIV-1). The test can be described thus: cross-linking.

The substance “HIV-1 integrase Q214C/Q221C double mutant, in virions (enzyme)” came in with a fold increase of the dimer percentage over WT of 3 fold and a stoichiometry N of 2.
